Drawing on patent US10731187B2, “Recombinant strain producing O-aminobenzoate and fermentative production of aniline from renewable resources via 2-aminobenzoic acid” (Covestro Deutschland AG, priority 2014, dated 2020), this text covers Km and Vmax for four proteins.

Positions count from the first letter of the chain named. In names and notes the source's numbering stands.

A word on the Vmax: it is the rate approached at saturating substrate.

What all share (conditions): other: raw extract (cell lysate), 25 °C, 20 mM L-glutamine, 10 mM MgCl2, chorismate as substrate
Substrate in data set [1]: C=C(O[C@@H]1C=C(C(=O)O)C=C[C@H]1O)C(=O)O
As to the kind of experiment: cells, lysate or membranes.

Substrate in data set [2]: C=C(O[C@@H]1C=C(C(=O)O)C=C[C@H]1O)C(=O)O
As to the kind of experiment: Anthranilate synthase activity in cell lysate of C. glutamicum ΔtrpD/pEKEx2-trpEG^S38F (KM and vmax). The format is biochemical, Corynebacterium glutamicum ATCC 13032. The source says: (§1) In more specific embodiments of the recombinant microbial host cell of invention, the Corynebacterium glutamicum microbial host cell, preferably Corynebacterium glutamicum ATCC 13032, can further overexpress one or more of the genes selected from the group consisting of galP (SEQ ID NO: 30), iolT2 (SEQ ID NO: 31), ppgk (SEQ ID NO: 32), pps (SEQ ID NO: 33-35), ppk (SEQ ID NO: 36), zwfl (SEQ ID NO: 37), opcA (SEQ ID NO: 38-39), tktCg (SEQ ID NO: 40), tktEc (SEQ ID NO: 41), talCg (SEQ ID NO: 42), tame (SEQ ID NO: 43), a gene encoding TrpEGS38F (trpEG^S38F, SEQ ID NO: 50), a gene encoding TrpEGS38R (trpEG^S38R, SEQ ID NO: 51), a gene encoding TrpEGS40R (trpEG^S40R, SEQ ID NO: 52), a gene encoding TrpEGS40F (trpEG^S40F, SEQ ID NO: 53), the gene encoding AroGD146N (aroG^D146N, SEQ ID NO: 55), aroL of Escherichia coli LJ110 (SEQ ID NO: 93), aroK (SEQ ID NO: 94), glnA (SEQ ID NO: 95), and qsuA (SEQ ID NO: 96). […]

Substrate in data set [3]: C=C(O[C@@H]1C=C(C(=O)O)C=C[C@H]1O)C(=O)O
As to the kind of experiment: Anthranilate synthase activity in cell lysate of C. glutamicum ΔtrpD/pEKEx2-trpEG^S38R (KM and vmax). It is filed as biochemical, Corynebacterium glutamicum ATCC 13032.
Source text: as §1

Substrate in data set [4]: C=C(O[C@@H]1C=C(C(=O)O)C=C[C@H]1O)C(=O)O
The data set can be described thus: Anthranilate synthase activity in cell lysate of C. glutamicum ΔtrpD/pEKEx2-trpEG^S40F (KM and vmax). It is filed as biochemical, E. coli.
Source text: as §1

B1: Corynebacterium glutamicum ATCC 13032 TrpEG (anthranilate synthase), natural (wild type, Cgl3029/31) (Corynebacterium glutamicum ATCC 13032) (protein)
chain: MSTNPHVFSLDVRYHEDASALFAHLGGTTADDAALLESADITTKNGISSLAVLKSSVRITCTGNTVVTQPLTDSGRAVVARLTQQLGQYNTAENTFSFPASDAVDERERLTAPSTIEVLRKLQFESGYSDASLPLLMGGFAFDFLETFETLPAVEESVNTYPDYQFVLAEIVLDINHQDQTAKLAGVSNAPGELEAELNKLSLLIDAALPATEHAYQTTPHDGDTLRVVADIPDAQFRTQINELKENIYNGDIYQVVPARTFTAPCPDAFAAYLQLRATNPSPYMFYIRGLNEGRSYELFGASPESNLKFTAANRELQLYPIAGTRPRGLNPDGSINDELDIRNELDMRTDAKEIAEHTMLVDLARNDLARVSVPASRRVADLLQVDRYSRVMHLVSRVTATLDPELDALDAYRACMNMGTLTGAPKLRAMELLRGVEKRRRGSYGGAVGYLRGNGDMDNCIVIRSAFVQDGVAAVQAGAGVVRDSNPQSEADETLHKAYAVLNAIALAAGSTLEVIR
On to B1, for which, in data set [1], the Km was 11.4 µmol and the Vmax is 0.0127 µmol/min/mg.

B2: Corynebacterium glutamicum TrpEG (anthranilate synthase) variant TrpEGS38F, mutation S38F (SEQ ID NO: 50 in b85; SEQ ID No. 52-53 in b196) (Corynebacterium … (protein)
chain: B1 chain with S38F
For B2, in data set [2], the Km was 16.2 µmol and the Vmax was 0.0688 µmol/min/mg.

B3: Corynebacterium glutamicum TrpEG (anthranilate synthase) variant TrpEGS38R, mutation S38R (SEQ ID NO: 51 in b85; SEQ ID No. 52-53 in b196) (Corynebacterium … (protein)
chain: B1 chain with S38R
Regarding B3, in data set [3], the Km came to 21.6 µmol and the maximal velocity (Vmax) was 0.231 µmol/min/mg.

B4: E. coli TrpEG (anthranilate synthase) variant TrpEGS40F, mutation S40F (SEQ ID NO: 53 in b85; SEQ ID No. 50-51 in b196) (Escherichia coli K-12; S40F) (protein)
chain: MQTQKPTLELLTCEGAYRDNPTALFHQLCGDRPATLLLEFADIDSKDDLKSLLLVDSALRITALGDTVTIQALSGNGEALLALLDNALPAGVESEQSPNCRVLRFPPVSPLLDEDARLCSLSVFDAFRLLQNLLNVPKEEREAMFFGGLFSYDLVAGFEDLPQLSAENNCPDFCFYLAETLMVIDHQKKSTRIQASLFAPNEEEKQRLTARLNELRQQLTEAAPPLPVVSVPHMRCECNQSDEEFGGVVRLLQKAIRAGEIFQVVPSRRFSLPCPSPLAAYYVLKKSNPSPYMFFMQDNDFTLFGASPESSLKYDATSRQIEIYPIAGTRPRGRRADGSLDRDLDSRIELEMRTDHKELSEHLMLVDLARNDLARICTPGSRYVADLTKVDRYSYVMHLVSRVVGELRHDLDALHAYRACMNMGTLSGAPKVRAMQLIAEAEGRRRGSYGGAVGYFTAHGDLDTCIVIRSALVENGIATVQAGAGVVLDSVPQSEADETRNKARAVLRAIATAHHAQETF
Take B4: the Vmax in data set [4] is 0.427 µmol/min/mg.
